Results published in paper PMC4794390.

Substrate: Nc1nc2c(ncn2[C@@H]2O[C@H](CO)[C@@H](O)[C@H]2O)c(=O)[nH]1
Test: purified protein
Assay type: biochemical, Homo sapiens
[1] = phosphate catalytic site (His257, Asn243, Glu201)

Protein	Km [1]	kcat [1]	kcat/Km [1]	Km (phosphate catalytic site)	kcat (phosphate catalytic site)	kcat/Km (phosphate catalytic site)
purine nucleoside phosphorylase (PNP) (Homo sapiens) (protein) MENGYTYEDYKNTAEWLLSHTKHRPQVAIICGSGLGGLTDKLTQAQIFDYGEIPNFPRSTVPGHAGRLVFGFLNGRACVMMQGRFHMYEGYPLWKVTFPVRVFHLLGVDTLVVTNAAGGLNPKFEVGDIMLIRDHINLPGFSGQNPLRGPNDERFGDRFPAMSDAYDRTMRQRALSTWKQMGEQRELQEGTYVMVAGPSFETVAECRVLQKLGADAVGMSTVPEVIVARHCGLRVFGFSLITNKVIMDYESLEKANHEEVLAAGKQAAQKLEQFVSILMASIPLPDKAS	63 ± 8 µM	8.8 ± 0.5 s⁻¹	140000 M⁻¹ s⁻¹			
purine nucleoside phosphorylase (PNP) (Homo sapiens; E258D/L261A) (protein) MENGYTYEDYKNTAEWLLSHTKHRPQVAIICGSGLGGLTDKLTQAQIFDYGEIPNFPRSTVPGHAGRLVFGFLNGRACVMMQGRFHMYEGYPLWKVTFPVRVFHLLGVDTLVVTNAAGGLNPKFEVGDIMLIRDHINLPGFSGQNPLRGPNDERFGDRFPAMSDAYDRTMRQRALSTWKQMGEQRELQEGTYVMVAGPSFETVAECRVLQKLGADAVGMSTVPEVIVARHCGLRVFGFSLITNKVIMDYESLEKANHDEVAAAGKQAAQKLEQFVSILMASIPLPDKAS				73 ± 13 µM	4.2 ± 0.4 s⁻¹	58000 M⁻¹ s⁻¹
